According to patent US20120005127A1:

Molecular target: IL-1 receptor (human) (UniProt P14778)
Assay: cell-based or functional assay

Sequence of UniProt P14778 (P14778 18-569): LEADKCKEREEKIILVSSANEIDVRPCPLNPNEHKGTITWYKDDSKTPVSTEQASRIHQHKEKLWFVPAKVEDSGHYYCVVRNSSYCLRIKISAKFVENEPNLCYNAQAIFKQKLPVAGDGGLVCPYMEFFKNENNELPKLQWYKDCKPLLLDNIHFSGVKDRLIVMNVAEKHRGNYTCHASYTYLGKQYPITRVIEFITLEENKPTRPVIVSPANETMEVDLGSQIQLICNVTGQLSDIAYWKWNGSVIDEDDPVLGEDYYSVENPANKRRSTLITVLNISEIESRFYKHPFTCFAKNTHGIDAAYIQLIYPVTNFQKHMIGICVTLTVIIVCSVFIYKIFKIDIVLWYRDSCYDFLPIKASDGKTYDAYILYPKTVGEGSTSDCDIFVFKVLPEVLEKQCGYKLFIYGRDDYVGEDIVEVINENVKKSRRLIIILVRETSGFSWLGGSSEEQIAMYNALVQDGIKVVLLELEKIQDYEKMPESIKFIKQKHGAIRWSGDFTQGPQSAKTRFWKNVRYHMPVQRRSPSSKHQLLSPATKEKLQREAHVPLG

- IC50 (pM): inhibition of IL-1β induced production of IL-8 in human whole blood: 53.4 pM
Substance: Kineret® (anakinra) (from UniProt P18510 26-177) (ligand)
